We go through 31 molecules from patent US20190367592A1 (AC IMMUNE, published 2019).

Residue numbers refer to the chain shown, from its start.

Assay [1] has as its target T1, recombinant human Tau monomer, 2N4R isoform (amino acids 2-441) (human, UniProt P10636-8 2-441).
T1 construct: range 2-441; N-terminal His-tag removed with TEV protease; also called monomeric Tau
The assay is described as follows: SPR, captured IgG, Tau monomer analyte, 1:1 model; fit-quality column: Yes. As to the method:
(§1) Briefly, IgGs in 1 mL culuture were captured using tip columns that were custom packed with 20 μL MabSelect SuRe resin (Glygen Corp & GE Healthcare). After washing with 1×PBS pH 7.4, IgGs were eluted into 160 μL of 50 mM phosphoric acid pH 3 and neutralized with 12 μL of 20×PBS pH 11. MabSelect SuRe tip columns were stripped in 0.1 M NaOH and regenerated with 1×PBS pH 7.4 for consecutive use of up to 15 times. Purified antibodies in 96-well format were normalized to 0.1 mg/ml using a Hamilton Star liquid handling robot. The “pre-stress” samples were kept at approximately 4° C. and the “post-stress” samples were incubated at 40° C. for two weeks in a PCR machine. Functional stability of the variants was compared by running surface plasmon resonance kinetics experiments with the “pre-stress” and “post-stress” antibody preps. The antibodies were assessed using a human antibody capture CM5 Series S chip generated using the GE Biacore human IgG capture kit and a Biacore T200 instrument. Antibodies diluted to 2 μg/ml were immobilized using a 15 second injection time and 10 μl/min flow rate. Binding to Tau monomer at 0 nM, 26.5 nM and 265 nM, at 25° C., using a flow rate of 40 μl/min, was monitored for a 180 second association phase followed by a 300 second dissociation phase. Samples were run in 10 mM HEPES pH7.4, 150 mM NaCl, 0.05% Tween 20 (HBSP) using a multi-cycle kinetics format. Data was analyzed using BIAevaluation software, fitting a 1:1 binding model. The resulting affinity (KD) values are shown in FIG. 8A-D. A Stability Index was also calculated, using the rationale that affinity-compromised antibodies (due for example to deamidation of key residues) are expected to contribute equally to the IgG capture level (“Ligand Level”) but to contribute less to the measured Tau binding, and that this would be reflected in the experimentally derived value for Rmax. To account for variations in the amount of each antibody captured, Rmax was normalized for the antibody capture level (as measured by “Ligand Level”, Response Units immobilized during antibody capture). Thus Normalized Rmax is calculated as the experimental Rmax (units=RU) divided by the “Ligand Level” (Evaluation output representing the RU captured during the hIgG capture step, units=RU), and Stability Index is calculated here as Normalized Rmax (post-stress) divided by Normalized Rmax (pre-stress).

Assay [2] has as its target T1, recombinant human Tau monomer, 2N4R …. The assay is described as follows: SPR; Normalized Rmax post-stress (2 weeks 40 C) / pre-stress. On the procedure:
as §1
(In SPR one partner is held on a chip, and binding of the other changes the refractive index at the surface.)

T1 sequence (P10636 other isoform, or with tags, fused parts or gaps limits assumed): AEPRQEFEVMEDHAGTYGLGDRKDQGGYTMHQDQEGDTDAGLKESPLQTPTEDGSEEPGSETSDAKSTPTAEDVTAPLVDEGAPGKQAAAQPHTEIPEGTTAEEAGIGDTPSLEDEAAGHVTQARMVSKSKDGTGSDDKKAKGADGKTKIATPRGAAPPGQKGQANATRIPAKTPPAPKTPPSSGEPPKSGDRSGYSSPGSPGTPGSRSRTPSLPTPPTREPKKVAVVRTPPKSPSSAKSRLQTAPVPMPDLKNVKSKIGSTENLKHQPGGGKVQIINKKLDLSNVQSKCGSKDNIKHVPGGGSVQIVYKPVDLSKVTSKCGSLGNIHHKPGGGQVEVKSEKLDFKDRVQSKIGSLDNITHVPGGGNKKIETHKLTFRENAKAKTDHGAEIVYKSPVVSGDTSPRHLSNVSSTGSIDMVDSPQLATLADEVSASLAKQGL

B1: hu37D3.v28 (antibody, V domains shown)
VH: EVQLVESGGGLVQPGGSLRLSCAASGLIFRSYGMSWVRQAPGKGLEWVATINSGGTYTYYPDSVKGRFTISRDNSKNTLYLQMNSLRAEDTAVYYCANSYSGAMDYWGQGTLVTVSS
VL: DDVLTQTPLSLPVTPGQPASISCRSSQSIVHSNGNTYFEWYLQKPGQSPQLLIYKVSNRFSGVPDRFSGSGSGTDFTLKISRVEAEDVGVYYCFQGSLVPWTFGQGTKVEIK
B1: the Kd – broadly, the concentration at which binding is half-saturated – in assay [1] worked out at 0.9 nM. Also, the “Stability Index” value in assay [2] is 78%.

B2: hu37D3-H9.v30.2 (antibody, V domains shown)
VH: B1 VH
VL: B1 VL with N33T
With B2, the Kd in assay [1] was 4.2 nM. In addition, the “Stability Index” value in assay [2] worked out at 96%.

B3: hu37D3.v28.A2 (antibody, V domains shown)
VH: B1 VH
VL: B1 VL with L98H
Turning to B3, in assay [1], the Kd worked out at 32.6 nM. In addition, the “Stability Index” value in assay [2] worked out at 72%.

B4: hu37D3-H9.v31.5 (antibody, V domains shown)
VH: B1 VH
VL: B1 VL with G34A, N35F
On to B4, for which the Kd in assay [1] was 15.2 nM. The “Stability Index” value in assay [2] stood at 85%.

B5: hu37D3-H9.v5.9 (antibody, V domains shown)
VH: B1 VH
VL: B1 VL with D1E, N35E
As to B5, the Kd in assay [1] turned out to be 5.3 nM. Moreover, the “Stability Index” value in assay [2] came to 95%.

B6: hu37D3-H9.v5.8 (antibody, V domains shown)
VH: B1 VH
VL: B1 VL with D1E, N35Q
In the case of B6, in assay [1], the Kd was determined as 2.2 nM. In assay [2], the “Stability Index” value is 90%.

B7: hu37D3.v28.57 (antibody, V domains shown)
VH: B1 VH
VL: B1 VL with G34F
With B7, in assay [1], the Kd is 4.4 nM. Besides, in assay [2], the “Stability Index” value worked out at 88%.

B8: hu37D3.v28.55 (antibody, V domains shown)
VH: B1 VH
VL: B1 VL with G34Q
As for B8, the Kd in assay [1] was 2.6 nM. In addition, in assay [2], the “Stability Index” value stood at 82%.

B9: hu37D3-H9.v31.2 (antibody, V domains shown)
VH: B1 VH
VL: B1 VL with G34A, N35V
In the case of B9, the Kd in assay [1] was determined as 10.6 nM. In assay [2], the “Stability Index” value was determined as 90%.

B10: hu37D3-H9.v5.2 (antibody, V domains shown)
VH: B1 VH
VL: B1 VL with D1E, N33S
Regarding B10, the Kd in assay [1] turned out to be 10.9 nM. The “Stability Index” value in assay [2] was determined as 97%.

B11: hu37D3-H9.v31.3 (antibody, V domains shown)
VH: B1 VH
VL: B1 VL with G34A, N35I
For B11, the Kd in assay [1] was found to be 9.8 nM. Further, in assay [2], the “Stability Index” value was found to be 93%.

B12: hu37D3.v28.54 (antibody, V domains shown)
VH: B1 VH
VL: B1 VL with D1E, N33L
B12: the Kd in assay [1] was 24.8 nM. The “Stability Index” value in assay [2] was found to be 82%.

B13: hu37D3.v28.C1 (antibody, V domains shown)
VH: B1 VH
VL: B1 VL with G34N
Regarding B13, the Kd in assay [1] is 1.4 nM. The “Stability Index” value in assay [2] worked out at 77%.

B14: hu37D3.v28.B6 (antibody, V domains shown)
VH: B1 VH
VL: B1 VL with N33D, Y37R
On to B14, for which, in assay [1], the Kd is 85.6 nM. The “Stability Index” value in assay [2] stood at 46%.

B15: hu37D3-H9.v5.10 (antibody, V domains shown)
VH: B1 VH
VL: B1 VL with D1E, N35A
For the molecule B15, the Kd in assay [1] was determined as 4.7 nM. Moreover, the “Stability Index” value in assay [2] came out at 78%.

B16: hu37D3-H9.v31.8 (antibody, V domains shown)
VH: B1 VH
VL: B1 VL with G34A, T36V
For the molecule B16, the Kd in assay [1] is 10.9 nM. In addition, in assay [2], the “Stability Index” value was found to be 78%.

B17: hu37D3-H9.v30.4 (antibody, V domains shown)
VH: B1 VH
VL: B1 VL with N33L
B17: the Kd in assay [1] was 22 nM. Further, the “Stability Index” value in assay [2] came out at 87%.

B18: hu37D3.v28.53 (antibody, V domains shown)
VH: B1 VH
VL: B1 VL with D1E, N33R
In the case of B18, the Kd in assay [1] turned out to be 22.9 nM. For the same molecule, the “Stability Index” value in assay [2] turned out to be 76%.

B19: hu37D3-H9.v30.1 (antibody, V domains shown)
VH: B1 VH
VL: B1 VL with N33G
Consider B19, for which the Kd in assay [1] was determined as 23.5 nM. Also, the “Stability Index” value in assay [2] is 87%.

B20: hu37D3.v28.A6 (antibody, V domains shown)
VH: B1 VH
VL: B1 VL with F38L, L98H
Take B20: in assay [1], the Kd worked out at 38.3 nM. In assay [2], the “Stability Index” value was 82%.

B21: hu37D3.v28.B1 (antibody, V domains shown)
VH: B1 VH
VL: B1 VL with N33I, Y37F
For the molecule B21, the Kd in assay [1] was 24.3 nM. In assay [2], the “Stability Index” value is 101%.

B22: hu37D3.v28.56 (antibody, V domains shown)
VH: B1 VH
VL: B1 VL with G34Y
As to B22, in assay [1], the Kd came to 5.4 nM. Further, the “Stability Index” value in assay [2] turned out to be 76%.

B23: hu37D3-H9.v30.3 (antibody, V domains shown)
VH: B1 VH
VL: B1 VL with N33V
Turning to B23, the equilibrium dissociation constant (Kd) in assay [1] came out at 38.1 nM. In addition, in assay [2], the “Stability Index” value turned out to be 83%.

B24: hu37D3.v28.B2 (antibody, V domains shown)
VH: B1 VH
VL: B1 VL with N33M, Y37F
B24: the Kd in assay [1] turned out to be 31.8 nM. Moreover, in assay [2], the “Stability Index” value was determined as 83%.

B25: hu37D3.v28.52 (antibody, V domains shown)
VH: B1 VH
VL: B1 VL with D1E, N33K
As to B25, the Kd in assay [1] was found to be 17.6 nM. Moreover, the “Stability Index” value in assay [2] stood at 80%.

B26: hu37D3.v28.A4 (antibody, V domains shown)
VH: B1 VH
VL: B1 VL with F38L
notes: also called hu37D3-H9.v28.A4
Consider B26, for which, in assay [1], the dissociation constant (Kd) came to 1.2 nM. In assay [2], the “Stability Index” value is 96%.

B27: hu37D3-H9.v5.7 (antibody, V domains shown)
VH: B1 VH
VL: B1 VL with D1E, N35D
On to B27, for which, in assay [1], the Kd was 13 nM. In assay [2], the “Stability Index” value was found to be 67%.

B28: hu37D3-H9.v5.11 (antibody, V domains shown)
VH: B1 VH
VL: B1 VL with D1E, N35S
For the molecule B28, in assay [1], the Kd stood at 97.7 nM. Moreover, in assay [2], the “Stability Index” value amounted to 71%.

B29: hu37D3-H9.v31.9 (antibody, V domains shown)
VH: B1 VH
VL: B1 VL with G34A, T36I
Turning to B29, the dissociation constant Kd in assay [1] was found to be 7.5 nM. Besides, the “Stability Index” value in assay [2] was 81%.

B30: hu37D3-H9.v31.6 (antibody, V domains shown)
VH: B1 VH
VL: B1 VL with G34A, N35Y
In the case of B30, in assay [1], the Kd worked out at 15.5 nM. In addition, the “Stability Index” value in assay [2] turned out to be 90%.

B31: hu37D3-H9.v31.7 (antibody, V domains shown)
VH: B1 VH
VL: B1 VL with G34A, N35R
Consider B31, for which the Kd in assay [1] came to 6.9 nM. In addition, the “Stability Index” value in assay [2] amounted to 83%.
